B1: ADI-21068 (antibody, V domains shown)
VH: QVQLQESGPGLVKPSGTLSLTCVVSGGSIKSHNYWTWVRQPPGKGLEWVGEIYQSGRTNYNPSLNSRVTLSMDKSKNQLSLRLTSVTAADTAVYFCVGGGPFAPYYFQTWGQGTLVTVSS
VL: QSVLTQPPSVSGAPGQRVTISCTGSSSNIGAGYDVHWYQQLPGTAPKLLIYNNNNRPSGVPDRFSGSKSGTSASLAITGLQAEDEADYYCQSYDTSLSGYVFGTGTKVTVL
B2: ADI-21090 (antibody, V domains shown)
VH: EVQLLESGGGLVKPGGSLRLSCAASGFTSGFTFSDFYMSWIRLTPGKGLEWISYISTHSTSTNYADSVRGRFIISRDDARNSLFLQMNSLRAEDTAVYYCAGYYYGSGSYFFDHWGQGTLVTVSS
VL: ETTLTQSPATLSVSPGERATLSCRASQSVSSNVAWYQQKPGQAPRLLIYSASSRDTGIPVRFSGSGSGTEFTLSISSLQSEDFAVYYCQQYSDWPTFGQGTKVEIK
B3: ADI-41827 (antibody, V domains shown)
VH: EVQLSESAGGVVQPGGSLRLTCAASGFSFSTNGMHWVRQAPGKGLEWVAFIRYDGSKKYYAESVKGRFTISREDSNNTLYLQMNSLRPEDTAVYYCAKEDCSGGTCYHERNYYYYGMDVWGQGTTVTVSS
VL: QPVLTQPPSLPVSPGQTASITCSGDKLEYKYACWYQHKPGQSPVLVIYQDNKRPSGIPERFSGSNSGNTATLTISGTQPMDEADYYCQAWDSSTVVFGGGTKVTVL
B4: ADI-21087 (antibody, V domains shown)
VH: EVQLVESGGGLVQPGGSLRLSCAASGFTFSGYEMNWVRQAPGKGLEWLSYISSSGGIIYYADSVKGRFTISRDNARNSLFLQMNSLRAEDTAVYSCARARLLDGFDIWGQGTMVTVSS
VL: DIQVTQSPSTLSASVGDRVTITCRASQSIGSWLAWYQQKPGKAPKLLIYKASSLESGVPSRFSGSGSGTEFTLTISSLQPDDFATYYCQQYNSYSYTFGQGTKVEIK
B5: ADI-21076 (antibody, V domains shown)
VH: EVQLVESGGGLVRPGGSLRLSCAASGFTFSSYAMDWVRQAPGKGLEWVSSISASSSFISYTDSVKGRFTISRDNAKNSLFLQMDNVTAEDTAVYYCARDYYESGRYFYGNPFDIWGQGTMVTVSS
VL: QPVLTQPPSVSGAPGQRVTISCTGSGSNIGAGFDVHWYQQLPGTAPKLLIYANSDRPSGVPDRFSASKSGTSASLAITGLQAEDEAHYYCQSYDNSLGGLCVFGTGTKLTVL
B6: ADI-21073 (antibody, V domains shown)
VH: EVQLVESGGGLVRPGRSLRLSCAASGFTFSMFSMNWVRQAPGKGLEWLAYIGGSGSTIDYANSVSGRFTISRDNAKNSLYLQMNSLRDEDTAVYYCARIGLQTYNSHSSSSSPARAFDVWGQGTTVTVSS
VL: DIVLTQSPSSLSASVGDRVTITCRASQSIGRFLNWYQQKPGKAPKLLIYAASSLESGVPSRFSGSGSGTQFSLTISSLQPEDFTTYYCQQSYSTPTTFGGGTKVDIK
B7: ADI-21085 (antibody, V domains shown)
VH: EVQLVETGGGLVKPGGSLRLSCEASGFNFRSYSMNWVRQAPGKGLEWVSSISASSSYINYADSVKGRFTISRDNSKNSLYLQMNSLRAEDTGVYYCARVLVHYYYGMDVWGQGTTVTVSS
VL: QSVLTQPPSVSAAPGQRVTISCTGTSSNIGAGYDVHWYQQLPGRAPKLLILGNNNRPSGVPDRFSGSKSGTSASLAITGLQAEDEADYYCQTYDKTLMEIFGGGTKLTVL
notes: also called Ab 330
B8: ADI-21084 (antibody, V domains shown)
VH: EVQLVESGAEVKKPGASVTVSCKASGYTFTSNTISWLRQAPGQGLEWLGWVSASNGNTKYAQKFQGRVTMTTDTSATTAYMEVRTLRHDDTAIYYCARDILDMGGFHFDNWGQGTLVTVSS
VL: SYVLTQPPSVSVAPGQTARITCGGNNIGNKHVHWYKQKPGQAPVLVVYDDSDRPSGIPERFSGSNSGNTATLTVSRVEAGDEADFYCQVWDNTNDHPVFGGGTKVTVL
B9: ADI-21091 (antibody, V domains shown)
VH: QVQLVQSGAEVKKPGESLRISCQYSAYGFSTYWISWVRQLPGKGLEWMGRIDPSDSHTTYSPSFQGHVTLSADKSISTVYLQWSSLKASDTAMYYCARHQEYSGSDLDSWGQGTLVTVSS
VL: QPVLTQPPSVSAAPGQRVTISCSGTRSNIGYNFVSWYQQLPGTAPKLLIYDNNKRPSGIPDRFSGSKSGTSATLAITGLQTGDEADYYCGTWDSSLSALFGGGTKVTVL
B10: ADI-43646 (antibody, V domains shown)
VH: EMQLMQSGGVVVQPGGSLRLSCAASGFTFDDYAMHWVRQAPGKGLEWVSLISWDGGSTYYADSVKGRFTISRDNSKNSLYLQMNSLRAEDTALYYCAKDFDPLVVPAAMCFDYWGQGTLVTVSS
VL: QSVLIQPASVSGSPGQSITISCTGTSSDVGGYNYVSWYQQHPGKAPKLMIYDVSNRPSGVSNRFSGSKSGNTASLTISGLQAEDEADYYCSSYTSSSTLYVFGTGTKLTVL
B11: ADI-21070 (antibody, V domains shown)
VH: EVQLVESGGGLVQPGGSLRLSCAASGFTFSRYAMGWVRQAPGKGLEWVSTISDSGGSTFYADSVEGRFTIARDSSKNTLSLHMNSLRAEDTAIYYCAREAYSSSWYSGGWFDRWGQGTLVTVSS
VL: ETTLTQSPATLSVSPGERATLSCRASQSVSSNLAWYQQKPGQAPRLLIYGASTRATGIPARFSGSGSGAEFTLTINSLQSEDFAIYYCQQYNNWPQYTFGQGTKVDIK
B12: ADI-41833 (antibody, V domains shown)
VH: EVQLLESGGGLVQPGGSLRLSCAASRFTFSTYAMSWVRQAPGKGLEWVSSISGSGDKTFYTDSVKGRFTISRDNSKNTLYLQMNSLRAEDTAVYYCARESYYELWTGTYPGWELDYWGQGTLVTVSS
VL: DIQLTQSPSSLSASVGDRVTITCRASQDISNYLAWYQQKPGKPPKLLIYAASILESGAPSRFSGSGSGTDFTLTISSLQPEDVGTYYCQKSNSAPRPFGQGTKVEIK
B13: ADI-41820 (antibody, V domains shown)
VH: EVQLVESGGGVVQPGRSLRLSCAVSGFTFSTYGMHWVRQTPGRGLEWVAVISYDGNHKYYADSVMGRFTISRDNSKDTLYLQVNSLRPEDSAVYYCAKDRIHCPNGVCYVHSSFYGLDVWGQGTTVTVSS
VL: QTVVTQEPSLTVSPGGTVTLTCGSSTGAVTSGHYPYWLQQKPGQAPRTLIYDTTNKDSWTPARFSGSLLGGKAALTLSGAQPEDEAQYYCLLSFNGPYWVFGGGTKVTVL
notes: also called Ab 926; Antibody Number 926
B14: ADI-21071 (antibody, V domains shown)
VH: EVQLVESGGGVVQPGKSLRLSCAVSGFTFSDHDMHWVRQAPGKGLEWVAAIWSDRTTKYYGDFVKGRFTISRDNSKNTLYLQMNSLRAEDTAVYYCARGQIYKSGGYYLVHLDHWGQGTLVTVSS
VL: DIQVTQSPSSLSASVGDRVTITCRASQSIASYLNWYQQKPGKAPNLLIYAASNLQSEVPSRFSGSGSGTDFTLTISGLQPEDFATYYCQQSYNIRLLTFGGGTKVEIK
B15: ADI-41815 (antibody, V domains shown)
VH: EVQLLESGGGLVKPGGSLRLSCGASGFTFSTSSFNWVRQAPGKGLEWVSSISSTSSYVFYADSVKGRFTVSRDNAQNSLYLQMNSLRAEDTAVYYCARARGVGATIGFDYWGQGTLVTVSS
VL: not shown
notes: also called Ab 922; Antibody Number 922
B16: ADI-21083 (antibody, V domains shown)
VH: QVQLQESGPGLVKPSGTLSLTCAVSGDSITTSNWWSWVRQPPGKGLEWIGEIYHSGVTRYNPSLKSRLSISLDKSRNQFSLKLSSVTAADTAVYYCARDEALFGHWFDPWGQGTLVTVSS
VL: QSVLTQPRSVSGSPGQSVTISCTGSSSDIGSYNYVSWYQQHPGKAPKLMLYDVSKRPSGVPDRFSGSKSVKTASLTISGLQAEDEADYYCCTYAGNSVVFGGGTKLTVL

Key:
[1] = target: T1, RSV postfusion F, subtype A (postF, F ΔFP trimer) (Respiratory syncytial virus subtype A, UniProt P03420 26-513); experiment: BLI, IgG apparent affinity
T1 construct: also called Postfusion subtype A

[2] = target: T2, RSV postfusion F, subtype B (postF trimer) (Respiratory syncytial virus subtype B, UniProt P13843 26-513); experiment: BLI, IgG apparent affinity
T2 construct: also called Postfusion subtype B

[3] = target: RSV prefusion F, subtype A (preF, DS-Cav1 trimer) (Respiratory syncytial virus subtype A, UniProt P03420 26-513); experiment: BLI, IgG apparent affinity
[4] = target: RSV F on recombinant mKate-RSV A2 virus (Respiratory syncytial virus A2, UniProt P03420 26-574); experiment: cell-based or functional assay
[5] = target: RSV F on RSV subtype A virus (RSV-A2) (Respiratory Syncytial Virus, subtype A, …, UniProt P03420 26-574); experiment: cell-based or functional assay
[6] = target: RSV postfusion F (postF), F ΔFP trimer, subtype A (Respiratory Syncytial Virus, subtype A, UniProt P03420 26-513); experiment: BLI, IgG on anti-human IgG sensors
[7] = target: RSV prefusion F (preF), DS-Cav1 stabilized trimer, subtype A (Respiratory Syncytial Virus, subtype A, UniProt P03420 26-513); experiment: BLI, IgG on anti-human IgG sensors, 100 nM antigen, apparent KD
[8] = target: RSV F on recombinant mKate-RSV B 18537 virus (Respiratory syncytial virus B 18537, UniProt P13843 26-574); experiment: cell-based or functional assay
[9] = target: RSV postfusion F (postF), F ΔFP (Respiratory Syncytial Virus, UniProt P03420 26-513); experiment: BLI, IgG on anti-human IgG sensor
[10] = target: RSV F on RSV-A2 virus (Respiratory Syncytial Virus (RSV-A2), UniProt P03420 26-574); experiment: cell-based or functional assay
[11] = target: RSV prefusion F (preF), DS-Cav1 (Respiratory Syncytial Virus, UniProt P03420 26-513); experiment: BLI, IgG on anti-human IgG sensor, 100 nM antigen, 1:1 fit

Binder	Kd [1] [nM]	Kd [2] [nM]	Kd [3] [nM]	Neut IC50 (ug/ml) subtype A [4] [µg/mL]	Neut IC50 (ug/ml) subtype B [8] [µg/mL]	other results
B1	15.5	7.85	0.255	0.1		
B2	0.176	0.175	1.17			
B3						Neutralization IC50 (RSV subtype A) [5]: > 25 µg/mL; binding result [6]: no binding (tested: 100 nM antigen); Kd [7]: 0.186 nM
B4	0.545	0.476				binding result [3]: no binding
B5	7.34	6.28	0.219	0.03	0.3	
B6	0.58	0.675	4.06		11.2	
B7		6.24	0.307	0.1	0.48	binding result [1]: no binding
B8	17.3	22.9	0.109	0.14	0.46	
B9			0.749	0.29	0.92	binding result [1]: no binding; binding result [2]: no binding
B10						binding result [9]: no binding; Neutralization IC50 (RSV subtype A) [10]: > 25 µg/mL; Kd [11]: 5.34 nM
B11			5.37		2.38	binding result [1]: no binding; binding result [2]: no binding
B12						Neutralization IC50 (RSV subtype A) [5]: 0.02 µg/mL; binding result [6]: no binding (tested: 100 nM antigen); Kd [7]: 0.723 nM
B13						Neutralization IC50 (RSV subtype A) [5]: > 25 µg/mL; binding result [6]: no binding (tested: 100 nM antigen); Kd [7]: 64.9 nM
B14	0.216	1.38	1.17			
B15						Neutralization IC50 (RSV subtype A) [5]: > 25 µg/mL; binding result [6]: no binding (tested: 100 nM antigen); Kd [7]: 3.21 nM
B16			2.25	0.36	0.79	binding result [1]: no binding; binding result [2]: no binding

— patent publication US20260258115A1 (MAPP BIOPHARMACEUTICAL, published 2026)
